Laboratory results published in patent US20210380651A1 (SIOLTA THERAPEUTICS, published 2021).

Molecular target: T1, IgE-Fc protein having the amino acid sequence set forth in SEQ ID NO: 5 (murine, UniProt P06336 91-421, glycosylated (fully glycosylated IgE-Fc))
T1 construct: Made in HEK293T cells; also called murine IgE-Fc; single domain IgE-Fc; not shown: TEV-His tag (detected with anti-His antibodies)
T1 sequence: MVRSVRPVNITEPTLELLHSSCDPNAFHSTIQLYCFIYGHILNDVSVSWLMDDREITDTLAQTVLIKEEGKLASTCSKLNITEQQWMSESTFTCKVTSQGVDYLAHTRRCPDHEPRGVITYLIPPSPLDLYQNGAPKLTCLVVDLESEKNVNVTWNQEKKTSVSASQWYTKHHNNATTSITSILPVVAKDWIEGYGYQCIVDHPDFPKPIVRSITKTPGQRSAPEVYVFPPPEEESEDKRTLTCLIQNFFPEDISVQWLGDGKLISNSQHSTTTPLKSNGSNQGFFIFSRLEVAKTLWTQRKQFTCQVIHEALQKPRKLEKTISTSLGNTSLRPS
Experiment: flow cytometry on RBL-2H3 cells, 30 min, APC anti-His detection
Experimental: Cells of the histamine-releasing rat cell line RBL-2H3 and human peripheral blood mononuclear cells (PBMCs) were treated with the IgE-Fc protein (purified) having the amino acid sequence set forth in SEQ ID NO: 5 and the IgG-Fc-IgE-Fc fusion protein (unpurified, obtained from cell culture supernatant) having the amino acid sequence set forth in SEQ ID NO: 12 for 30 min. Cells were then thoroughly washed and stained with allophycocyanin (APC) conjugated anti-His antibodies and subsequently analyzed by flow cytometry. Anti-His antibodies detected Fc proteins that were bound to the cell surface due to their specific interaction with Fc epsilon Receptor I (FcεRI) and Fc gamma Receptor IIB (FcγRIIB), respectively. IgG-Fc-IgE-Fc proteins were able to bind to both the rat basophil cell line RBL-2H3 as well as to human PBMCs (comprised about 50-70% […], 10-25% T cells, and 20-30% of cells expressing FcgRIIB), even in very low concentrations in which the IgG-Fc-IgE-Fc fusion protein was present (approximately 0.05 mg/mL) in cell culture supernatants compared to purified and highly concentrated IgE-Fc proteins (approximately 1 mg/mL).

binding result: binds
B1: Fc epsilon Receptor I (FcεRI) on cells of the rat basophil cell line RBL-2H3 (receptor, UniProt P12371 24-245, looked up)
chain: ATQKSVVSLDPPWIRILTGDKVTLICNGNNSSQMNSTKWIHNDSISNVKSSHWVIVSATIQDSGKYICQKQGFYKSKPVYLNVMQEWLLLQSSADVVLDNGSFDIRCRSWKKWKVHKVIYYKDDIAFKYSYDSNNISIRKATFNDSGSYHCTGYLNKVECKSDKFSIAVVKDYTIEYRWLQLIFPSLAVILFAVDTGLWFSTHKQFESILKIQKTGKGKKKG
notes: whole, on cells; the receptor on cells also has beta and gamma chains; also called FceRI; Fc epsilon receptors
